{
  "source": "paper PMC4446428",
  "about": "“A novel RNA binding surface of the TAM domain of TIP5/BAZ2A mediates epigenetic regulation of rRNA genes”",
  "key": {"[1]": {"system": "TIP5/TAM-AT (Homo sapiens)", "assay": "filter binding (Scatchard)", "conditions": "5 mM Mg2+, protein preincubated with 4x excess unlabeled MCS-RNA, EMSA: 12 mM Tris-HCl pH 8.0, 100 mM KCl, 5 mM MgCl2, 0.1 mM EDTA, 0.5 mM DTT, 3% glycerol, on ice, filter binding: 10 mM Tris-HCl pH 7.4, 100 mM KCl"}, "TIP5/TAM [2]": {"molecular_target": "T1, TIP5/TAM (Homo sapiens, UniProt Q9UIF9 516-623)", "T1 sequence": "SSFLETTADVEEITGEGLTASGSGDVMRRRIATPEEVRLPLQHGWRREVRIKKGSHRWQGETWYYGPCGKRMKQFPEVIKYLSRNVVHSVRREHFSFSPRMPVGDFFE", "assay": "NMR titration; EMSA: 12 mM Tris-HCl pH 8.0, 100 mM KCl, 5 mM MgCl2, 0.1 mM EDTA, 0.5 mM DTT, 3% glycerol, on ice; filter binding: 10 mM Tris-HCl pH 7.4, 100 mM KCl, 5 mM MgCl2, on ice; NMR: 20 mM Na phosphate pH 7.0, 50 mM NaCl, 1 mM DTT, 298 K (TAM-AT) or 293 K (TAM)", "conditions": "protein: recombinant; tags: His6-GB1, TEV-removed; label: none; hairpin"}, "TIP5/TAM [3]": {"molecular_target": "T1, TIP5/TAM", "assay": "NMR titration; negligible shift changes; EMSA: 12 mM Tris-HCl pH 8.0, 100 mM KCl, 5 mM MgCl2, 0.1 mM EDTA, 0.5 mM DTT, 3% glycerol, on ice; filter binding: 10 mM Tris-HCl pH 7.4, 100 mM KCl, 5 mM MgCl2, on ice; NMR: 20 mM Na phosphate pH 7.0, 50 mM NaCl, 1 mM DTT, 298 K (TAM-AT) or 293 K (TAM)", "conditions": "protein: recombinant; tags: His6-GB1, TEV-removed; label: none; single-stranded"}},
  "data": [
    {"molecule": "pRNA (mouse rDNA -204/-1)", "values": [
      {"measurement": "Kd", "setting": "[1]", "result": 5.5, "unit": "nM"}
    ]},
    {"molecule": "GGCGCAUCGGCGCC (structured_RNA)", "note": "[Xist A-repeat RNA hairpin]", "values": [
      {"measurement": "binding result", "setting": "TIP5/TAM [2]", "result": "binds"}
    ]},
    {"molecule": "UUUUUUUUUUUUU (ssRNA)", "note": "[13-mer poly-U RNA]", "values": [
      {"measurement": "binding result", "setting": "TIP5/TAM [3]", "result": "no binding"}
    ]}
  ]
}
